Data taken from the supplement of paper PMC10065799, “High-throughput profiling of sequence recognition by tyrosine kinases and SH2 domains using bacterial peptide display” (eLife, 2023).

Tests used:
[1] = test system: AncSZ; experiment: phosphorylation enrichment, bacterial display (enrichment ratio); higher = better substrate or ligand; peptides without Tyr show the background
[2] = biological target: EPHB1 (UniProt P54762); experiment: as above
[3] = biological target: EPHB2 (UniProt P29323); experiment: as above
Chain of EPHB2 (P29323 whole entry, looked up): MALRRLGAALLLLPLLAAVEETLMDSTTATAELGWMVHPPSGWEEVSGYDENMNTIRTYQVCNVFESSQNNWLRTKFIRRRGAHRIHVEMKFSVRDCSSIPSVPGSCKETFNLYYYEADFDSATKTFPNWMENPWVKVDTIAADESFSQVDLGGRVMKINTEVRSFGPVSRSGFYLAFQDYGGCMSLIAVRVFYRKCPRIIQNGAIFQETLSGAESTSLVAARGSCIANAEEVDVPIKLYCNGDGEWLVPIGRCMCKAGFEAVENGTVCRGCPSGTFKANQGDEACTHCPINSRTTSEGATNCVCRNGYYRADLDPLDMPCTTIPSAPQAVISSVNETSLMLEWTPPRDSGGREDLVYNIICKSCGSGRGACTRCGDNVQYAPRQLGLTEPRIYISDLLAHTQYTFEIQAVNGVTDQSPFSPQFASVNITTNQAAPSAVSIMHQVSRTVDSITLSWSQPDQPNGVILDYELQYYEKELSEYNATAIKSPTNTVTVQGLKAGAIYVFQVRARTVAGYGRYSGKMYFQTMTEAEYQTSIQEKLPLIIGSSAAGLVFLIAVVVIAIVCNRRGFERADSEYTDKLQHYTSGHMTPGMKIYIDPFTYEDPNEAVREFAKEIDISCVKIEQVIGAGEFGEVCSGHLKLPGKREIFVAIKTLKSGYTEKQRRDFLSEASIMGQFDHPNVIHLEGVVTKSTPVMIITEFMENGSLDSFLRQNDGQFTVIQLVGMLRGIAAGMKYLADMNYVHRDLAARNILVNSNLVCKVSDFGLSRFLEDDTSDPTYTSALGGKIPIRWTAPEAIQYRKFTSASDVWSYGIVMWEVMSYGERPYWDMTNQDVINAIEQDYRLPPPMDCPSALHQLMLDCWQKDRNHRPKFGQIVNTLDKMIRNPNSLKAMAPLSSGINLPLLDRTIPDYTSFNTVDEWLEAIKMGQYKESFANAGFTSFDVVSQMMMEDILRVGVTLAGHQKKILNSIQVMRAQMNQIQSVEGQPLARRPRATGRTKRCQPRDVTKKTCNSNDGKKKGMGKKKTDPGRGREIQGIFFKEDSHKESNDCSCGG

[4] = biological target: FGFR1 (UniProt P11362); experiment: as above
Chain of FGFR1 (P11362 whole entry, looked up): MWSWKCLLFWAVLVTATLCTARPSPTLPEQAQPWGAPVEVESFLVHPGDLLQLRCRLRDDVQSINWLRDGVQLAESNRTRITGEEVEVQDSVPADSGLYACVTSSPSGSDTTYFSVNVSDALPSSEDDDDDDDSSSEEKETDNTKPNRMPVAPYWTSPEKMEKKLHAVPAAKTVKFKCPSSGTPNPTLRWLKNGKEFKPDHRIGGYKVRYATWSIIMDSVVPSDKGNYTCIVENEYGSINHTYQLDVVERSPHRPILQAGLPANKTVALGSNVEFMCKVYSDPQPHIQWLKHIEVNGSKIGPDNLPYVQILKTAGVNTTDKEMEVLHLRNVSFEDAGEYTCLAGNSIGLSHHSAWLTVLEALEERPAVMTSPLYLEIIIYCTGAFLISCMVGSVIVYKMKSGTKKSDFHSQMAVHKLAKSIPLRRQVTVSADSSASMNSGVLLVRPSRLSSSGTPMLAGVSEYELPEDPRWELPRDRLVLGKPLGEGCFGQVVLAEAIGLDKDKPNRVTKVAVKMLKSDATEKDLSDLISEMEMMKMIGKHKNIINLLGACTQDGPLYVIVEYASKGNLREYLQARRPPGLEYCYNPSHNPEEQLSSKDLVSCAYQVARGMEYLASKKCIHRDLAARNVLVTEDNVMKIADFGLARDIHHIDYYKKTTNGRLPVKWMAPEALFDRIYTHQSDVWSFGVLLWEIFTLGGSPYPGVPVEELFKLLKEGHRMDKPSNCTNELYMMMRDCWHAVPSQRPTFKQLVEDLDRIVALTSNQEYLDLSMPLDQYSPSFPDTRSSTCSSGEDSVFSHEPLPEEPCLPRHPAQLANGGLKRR

[5] = biological target: FGFR3 (UniProt P22607); experiment: as above
Chain of FGFR3 (P22607 whole entry, looked up): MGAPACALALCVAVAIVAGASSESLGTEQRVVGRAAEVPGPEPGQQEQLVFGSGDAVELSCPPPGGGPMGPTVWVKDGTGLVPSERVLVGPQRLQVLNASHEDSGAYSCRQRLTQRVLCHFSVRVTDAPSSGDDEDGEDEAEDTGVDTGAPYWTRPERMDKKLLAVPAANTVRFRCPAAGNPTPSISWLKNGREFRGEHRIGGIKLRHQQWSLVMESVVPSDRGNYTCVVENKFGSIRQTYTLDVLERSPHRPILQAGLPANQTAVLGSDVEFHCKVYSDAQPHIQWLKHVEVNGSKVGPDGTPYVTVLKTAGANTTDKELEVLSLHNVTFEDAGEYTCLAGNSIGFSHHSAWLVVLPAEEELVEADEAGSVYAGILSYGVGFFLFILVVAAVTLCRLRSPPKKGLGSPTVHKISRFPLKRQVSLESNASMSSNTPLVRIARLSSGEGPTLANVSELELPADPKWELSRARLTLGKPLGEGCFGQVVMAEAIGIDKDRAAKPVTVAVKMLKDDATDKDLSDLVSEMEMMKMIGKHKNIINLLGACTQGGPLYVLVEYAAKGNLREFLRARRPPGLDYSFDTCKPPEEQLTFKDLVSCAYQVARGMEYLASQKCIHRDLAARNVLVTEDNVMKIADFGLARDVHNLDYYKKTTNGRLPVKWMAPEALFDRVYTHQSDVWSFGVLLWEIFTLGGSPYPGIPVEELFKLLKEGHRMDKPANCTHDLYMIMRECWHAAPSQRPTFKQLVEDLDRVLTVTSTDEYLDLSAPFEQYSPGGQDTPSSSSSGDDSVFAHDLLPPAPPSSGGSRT

[6] = test system: Fer (mouse); experiment: as above
[7] = biological target: Fes (UniProt P07332); experiment: as above
Chain of Fes (P07332 whole entry, looked up): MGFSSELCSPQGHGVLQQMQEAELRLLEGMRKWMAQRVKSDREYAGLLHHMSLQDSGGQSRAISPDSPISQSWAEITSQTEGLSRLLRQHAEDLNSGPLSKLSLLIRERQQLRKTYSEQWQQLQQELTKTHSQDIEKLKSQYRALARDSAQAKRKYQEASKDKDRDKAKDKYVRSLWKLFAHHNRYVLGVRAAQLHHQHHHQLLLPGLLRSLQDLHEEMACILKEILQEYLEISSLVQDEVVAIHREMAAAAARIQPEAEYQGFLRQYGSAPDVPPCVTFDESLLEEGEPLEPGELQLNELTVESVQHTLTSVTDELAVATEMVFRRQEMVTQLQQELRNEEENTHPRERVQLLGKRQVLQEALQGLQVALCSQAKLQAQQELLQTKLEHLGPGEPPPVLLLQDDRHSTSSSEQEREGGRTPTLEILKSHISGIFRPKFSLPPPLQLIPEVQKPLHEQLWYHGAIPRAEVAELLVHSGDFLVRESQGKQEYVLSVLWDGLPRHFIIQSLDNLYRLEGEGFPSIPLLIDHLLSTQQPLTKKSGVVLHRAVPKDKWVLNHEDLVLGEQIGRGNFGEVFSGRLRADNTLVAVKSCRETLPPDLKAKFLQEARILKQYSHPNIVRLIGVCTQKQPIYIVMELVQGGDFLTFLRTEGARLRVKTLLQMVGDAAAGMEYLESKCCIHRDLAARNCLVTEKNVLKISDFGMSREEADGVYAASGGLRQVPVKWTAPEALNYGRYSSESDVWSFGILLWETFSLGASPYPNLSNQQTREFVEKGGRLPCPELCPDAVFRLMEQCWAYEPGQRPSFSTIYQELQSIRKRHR

[8] = biological target: Fyn (UniProt P06241); experiment: as above
Chain of Fyn (P06241 whole entry, looked up): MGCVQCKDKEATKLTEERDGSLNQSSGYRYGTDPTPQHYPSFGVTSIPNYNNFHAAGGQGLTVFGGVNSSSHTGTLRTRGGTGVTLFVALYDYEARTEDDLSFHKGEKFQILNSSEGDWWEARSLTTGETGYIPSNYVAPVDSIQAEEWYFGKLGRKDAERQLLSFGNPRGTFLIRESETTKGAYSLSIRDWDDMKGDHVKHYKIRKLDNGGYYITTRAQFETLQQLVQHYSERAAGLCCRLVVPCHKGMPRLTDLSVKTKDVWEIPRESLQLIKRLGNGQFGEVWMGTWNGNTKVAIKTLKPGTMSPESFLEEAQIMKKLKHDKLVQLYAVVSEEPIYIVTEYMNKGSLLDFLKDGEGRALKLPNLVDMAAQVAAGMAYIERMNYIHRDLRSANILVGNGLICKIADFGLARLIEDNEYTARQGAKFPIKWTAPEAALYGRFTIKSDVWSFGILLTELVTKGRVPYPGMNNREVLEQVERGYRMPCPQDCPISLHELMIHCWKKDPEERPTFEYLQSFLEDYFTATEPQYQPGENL

[9] = biological target: Hck (UniProt P08631); experiment: as above
Chain of Hck (P08631 whole entry, looked up): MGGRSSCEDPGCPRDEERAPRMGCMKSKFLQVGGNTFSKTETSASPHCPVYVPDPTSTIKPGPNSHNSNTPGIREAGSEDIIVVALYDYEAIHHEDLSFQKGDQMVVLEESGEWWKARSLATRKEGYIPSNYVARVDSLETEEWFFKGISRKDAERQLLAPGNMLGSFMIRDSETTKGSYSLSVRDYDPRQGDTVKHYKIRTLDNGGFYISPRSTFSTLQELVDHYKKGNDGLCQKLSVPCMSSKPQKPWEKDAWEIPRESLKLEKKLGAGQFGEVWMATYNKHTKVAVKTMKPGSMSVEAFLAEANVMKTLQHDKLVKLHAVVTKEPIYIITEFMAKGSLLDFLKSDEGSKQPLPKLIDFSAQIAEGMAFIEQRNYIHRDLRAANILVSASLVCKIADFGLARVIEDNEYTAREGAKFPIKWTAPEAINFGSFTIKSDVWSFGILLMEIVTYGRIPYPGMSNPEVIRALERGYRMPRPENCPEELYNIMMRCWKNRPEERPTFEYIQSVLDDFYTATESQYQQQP

[10] = biological target: Jak2 (UniProt O60674); experiment: as above
[11] = biological target: MERTK (UniProt Q12866); experiment: as above
[12] = test system: c-Abl (mouse); experiment: as above
[13] = test system: c-Src; experiment: as above
[14] = biological target: Grb2 SH2 (UniProt P62993); experiment: SH2 binding enrichment of the phosphorylated peptide, bacterial display (enrichment ratio); higher = better substrate or ligand; peptides without Tyr show the background
[15] = biological target: SHP2-C SH2; experiment: as above
[16] = biological target: c-Src SH2; experiment: as above
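Throughout, for SH2 binding enrichment of the phosphorylated peptide, bacterial display: peptide library displayed on the E. coli surface as eCPX fusions, selected cells deep-sequenced, score is each peptide's frequency after selection divided by its frequency in the input.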
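Throughout, for phosphorylation enrichment, bacterial display: 11-residue human phosphosite peptides and single-mutation variants displayed on the E. coli surface, counted by deep sequencing, each peptide's frequency after selection divided by its frequency in the unselected input library; frequency after pTyr selection over input frequency; kinase dosed for 20-30% of maximal phosphorylation in three min.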

SH2 binding enrichment [14]	SH2 binding enrichment [15]	SH2 binding enrichment [16]	Sequence	phosphorylation enrichment [1]	phosphorylation enrichment [2]	phosphorylation enrichment [3]	phosphorylation enrichment [4]	phosphorylation enrichment [5]	phosphorylation enrichment [6]	phosphorylation enrichment [7]	phosphorylation enrichment [8]	phosphorylation enrichment [9]	phosphorylation enrichment [10]	phosphorylation enrichment [11]	phosphorylation enrichment [12]	phosphorylation enrichment [13]
0.951	0.665	0.444	DKMEAYNINET [TEKT4_Y210_D213N]	1.09	0.488	0.535	0.481	0.663	0.489	1.27	0.505	0.535	1.13	0.492	0.808	0.577
0.722	0.54	0.42	DLAHKYHGGGG [HBB_Y146_A141D]	0.441	0.333	0.392	0.43	0.388	0.32	0.473	0.373	0.348	0.545	0.452	0.394	0.388
0.808	0.614	0.949	DLDLTSIYPNI [PTEN_Y27_Y27S]	0.871	0.498	0.582	0.468	0.78	0.425	0.955	0.506	0.478	0.903	0.516	0.837	0.53
4.57	0.643	0.635	DMQTLYVNTAA [SMCHD1_Y403]	0.647	0.428	0.64	0.471	0.478	0.482	0.588	0.485	0.578	0.518	0.513	0.734	0.418
0.932	0.662	0.524	DNEAIYDICRC [TUBA4A_Y210_R215C]	3.65	1.82	4.87	0.633	0.761	7.98	1.28	9.3	7.18	0.923	5.93	10.3	6.51
0.873	0.731	0.571	DPEATYTTSGS [EPHA2_Y772_G777S]	0.889	0.476	0.518	0.425	0.596	0.48	0.981	0.518	0.598	0.694	0.34	0.617	0.633
0.65	0.713	0.359	DPGVSYHTREE [PDHA1_Y301_R302H]	0.677	0.351	0.429	0.452	0.548	0.383	0.764	0.483	0.551	0.465	0.405	0.399	0.41
0.662	0.703	0.425	DPHKIFEFVNS [IRF3_Y107_Y107F]	0.791	0.54	0.539	0.643	0.596	0.771	0.88	0.606	0.607	0.615	0.412	0.431	0.417
0.821	0.771	5.25	DPTFGYEDFTR [SESN2_Y323]	1.08	0.525	0.577	0.481	0.699	0.445	1.28	0.461	0.595	1.03	0.545	0.733	0.694
0.888	0.498	0.539	DQLVKYGVNPG [TMPO_Y127]	0.553	0.467	0.325	0.292	0.49	0.356	0.605	0.369	0.363	0.479	0.314	0.475	0.294
0.764	0.731	0.339	DRLANYLEKVR [KRT40_Y103_S102N]	0.651	0.337	0.424	0.382	0.64	0.373	0.74	0.399	0.38	0.587	0.41	0.469	0.395
0.93	0.676	0.423	DRLASYLEKVR [KRT13_Y118]	0.736	0.372	0.399	0.393	0.384	0.424	0.677	0.366	0.375	0.616	0.424	0.451	0.412
0.781	0.685	0.519	DRSSLYLVAGP [KIAA1614_Y1083_N1078D]	1.25	0.709	0.833	0.593	0.665	0.615	1.13	0.523	0.842	1.08	1.33	0.652	0.749
0.744	0.729	0.668	DSGKLYALDVL [INO80_Y1104]	0.921	0.711	0.705	0.525	0.721	0.676	0.93	0.752	0.58	0.731	3.17	0.643	1.02
0.856	0.693	0.473	DSSIRYLQEIF [FGG_Y135_YF]	0.868	0.576	0.5	0.632	0.604	0.417	0.924	0.559	0.527	0.755	0.542	0.545	0.497
0.935	0.629	0.526	DSSIRYLQEIY [FGG_Y135]	0.893	0.587	0.585	0.59	0.655	0.549	1.02	0.776	0.948	0.733	0.438	0.567	1.14

SH2 binding enrichment [14]	SH2 binding enrichment [15]	SH2 binding enrichment [16]	Sequence	phosphorylation enrichment [1]	phosphorylation enrichment [2]	phosphorylation enrichment [3]	phosphorylation enrichment [4]	phosphorylation enrichment [5]	phosphorylation enrichment [6]	phosphorylation enrichment [7]	phosphorylation enrichment [8]	phosphorylation enrichment [9]	phosphorylation enrichment [10]	phosphorylation enrichment [11]	phosphorylation enrichment [12]	phosphorylation enrichment [13]
0.679	0.512	0.417	DTSKMYIPHTD [EXPH5_Y782]	0.624	0.487	0.405	0.445	0.577	0.436	0.786	0.372	0.427	0.606	0.399	0.549	0.371
0.766	0.681	0.506	DWQQEYVLNES [TGM1_Y267_R264Q]	2.03	1.42	0.615	1.11	0.996	0.434	1.45	0.648	0.6	0.957	0.427	0.788	2.73
0.877	0.75	0.523	DWRQEYVLNEP [TGM1_Y267_S272P]	1.24	0.407	0.426	1.7	1.24	0.55	1.13	0.672	0.397	0.988	0.495	0.669	1.89
0.856	0.702	0.449	DWRQEYVLNES [TGM1_Y267]	1.23	0.55	0.817	0.878	0.909	0.558	1.15	0.593	0.686	0.863	0.53	0.677	1.36
0.765	0.666	0.438	DYSLKYPTDIP [APC_Y1183_A1184P]	0.867	0.618	0.478	0.691	0.866	0.476	0.844	0.534	0.503	0.852	0.549	0.52	0.442
0.858	0.437	0.547	EAESWYQTKYE [KRT75_Y342]	1.15	0.641	0.655	0.491	0.752	0.505	1.21	0.546	0.545	1.07	0.505	0.686	0.62
0.821	0.857	0.574	EAVSIYQFYGQ [CBLC_Y402_H405Y]	2.11	10.1	11.6	1.6	1.77	9.22	1.38	9.16	7.5	1.22	9.05	4.8	7.02
1.11	0.662	0.805	ECIEFYELDKK [PMM2_Y145_R141C]	1.22	0.579	0.596	0.569	0.776	0.589	1.13	0.501	0.572	0.977	0.485	0.825	0.999
0.857	0.589	0.582	EDASEYYENYI [PARP4_Y214_F215Y]	1.93	0.782	0.761	1.66	1.6	0.995	1.3	0.738	0.666	1.02	0.467	0.716	1.02
0.939	0.559	0.411	EDSEYYRAFEE [CASQ2_Y179_K180R]	2.96	0.823	0.724	0.937	1.26	0.518	1.6	0.765	0.675	1.37	0.497	0.915	0.754
0.876	0.473	0.472	EEGENYQKGEQ [CHGB_Y173_R178Q]	1.28	0.592	0.63	0.637	0.747	0.51	1.28	0.519	0.519	1.4	0.561	0.898	0.545
0.766	0.516	0.581	EEQKKYFNATK [SCN5A_Y1494_M1498T_YF]	0.607	0.356	0.479	0.49	0.582	0.366	0.729	0.34	0.379	0.6	0.269	0.459	0.377
1.06	0.878	0.584	EEQKKYYNAVK [SCN5A_Y1494_M1498V]	0.651	0.368	0.433	0.425	0.486	0.393	0.789	0.429	0.496	0.625	0.426	0.574	0.548
0.699	0.696	0.416	EGQKIYIDDNN [PIP4K2A_Y246]	1.04	0.586	0.539	0.584	0.667	0.484	1.15	0.568	0.548	0.984	0.412	0.74	0.467
0.901	0.662	0.515	EGWQVYRLGAR [MISP_Y95]	0.9	0.493	0.439	0.5	0.607	0.396	0.857	2.59	1.12	0.697	0.423	0.625	4.5
0.642	0.569	0.387	EIELAYRRRPP [GRIN2B_Y1109]	0.661	0.448	0.451	0.41	0.455	0.458	0.587	0.45	0.433	0.556	0.385	0.437	0.353

Sequence	SH2 binding enrichment [14]	SH2 binding enrichment [15]	SH2 binding enrichment [16]	phosphorylation enrichment [1]	phosphorylation enrichment [2]	phosphorylation enrichment [3]	phosphorylation enrichment [4]	phosphorylation enrichment [5]	phosphorylation enrichment [6]	phosphorylation enrichment [7]	phosphorylation enrichment [8]	phosphorylation enrichment [9]	phosphorylation enrichment [10]	phosphorylation enrichment [11]	phosphorylation enrichment [12]	phosphorylation enrichment [13]
DNEYAYLKAII [HNF4A_Y288]	0.732	0.513	0.391	1.27	1.68	0.97	3.79	2.4	0.667	1.01	0.615	1.58	0.856	0.603	2.79	0.599
